In publication doi:10.1101/2023.04.26.538363 (bioRxiv, 2023):

T1: Escherichia coli inclusion body-associated protein B (E. coli, UniProt P0C058 1-142)
T1 sequence: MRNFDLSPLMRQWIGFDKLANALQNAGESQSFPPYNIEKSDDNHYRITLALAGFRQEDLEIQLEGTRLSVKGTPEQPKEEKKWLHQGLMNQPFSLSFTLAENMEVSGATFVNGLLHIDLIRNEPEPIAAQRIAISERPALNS


Experiments:
[1] = target: T1, Escherichia coli inclusion …; test: sucrose density gradient centrifugation
[2] = target: the molecule itself; test: sucrose density gradient centrifugation

Binder | binding result [1] | binding result [2]
Escherichia coli inclusion body-associated protein A, wild type (natural protein) MRNFDLSPLYRSAIGFDRLFNHLENNQSQSNGGYPPYNVELVDENHYRIAIAVAGFAESELEITAQDNLLVVKGAHADEQKERTYLYQGIAERNFERKFQLAENIHVRGANLVNGLLYIDLERVIPEAKKPRRIEIN | binds | binds
Escherichia coli IbpA R93A mutant (natural protein) MRNFDLSPLYRSAIGFDRLFNHLENNQSQSNGGYPPYNVELVDENHYRIAIAVAGFAESELEITAQDNLLVVKGAHADEQKERTYLYQGIAEANFERKFQLAENIHVRGANLVNGLLYIDLERVIPEAKKPRRIEIN | binds | binds
